The target of experiment [1] is T1, UFO in the purified ASK1-UFO-LFY-DBD complex (Arabidopsis thaliana, UniProt Q39090 1-442).
T1 sequence: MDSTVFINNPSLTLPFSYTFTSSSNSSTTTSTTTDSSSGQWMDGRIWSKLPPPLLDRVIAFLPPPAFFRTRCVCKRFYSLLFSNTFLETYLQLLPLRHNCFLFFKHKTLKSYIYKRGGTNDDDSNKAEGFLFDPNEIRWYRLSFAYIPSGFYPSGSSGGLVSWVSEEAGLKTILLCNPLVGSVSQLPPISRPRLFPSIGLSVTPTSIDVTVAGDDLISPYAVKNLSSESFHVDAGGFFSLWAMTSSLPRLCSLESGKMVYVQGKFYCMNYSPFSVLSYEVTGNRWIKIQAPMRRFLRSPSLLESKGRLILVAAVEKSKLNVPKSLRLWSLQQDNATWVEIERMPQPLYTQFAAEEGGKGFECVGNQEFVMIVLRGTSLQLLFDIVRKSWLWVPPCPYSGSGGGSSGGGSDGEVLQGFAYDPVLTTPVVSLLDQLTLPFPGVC
The experiment is described as follows: SEC-MALS. On the technique in general: In gel filtration, larger molecules generally elute earlier.

In experiment [2] the target is LFY-DBD in the purified ASK1-UFO-LFY-DBD complex (Arabidopsis thaliana). In words: SEC-MALS.

B1: ASK1 in the purified ASK1-UFO-LFY-DBD complex (natural protein)
chain: MSAKKIVLKSSDGESFEVEEAVALESQTIAHMVEDDCVDNGVPLPNVTSKILAKVIEYCKRHVEAAASKAEAVEGAATSDDDLKAWDADFMKIDQATLFELILAANYLNIKNLLDLTCQTVADMIKGKTPEEIRTTFNIKNDFTPEEEEEVRRENQWAFE
Broadly, the stoichiometry N is the number of molecules, sites or subunits per partner or assembly. For B1, the “stoichiometry N” value in experiment [1] is 1.

B2: UFO in the purified ASK1-UFO-LFY-DBD complex (natural protein)
chain: T1 sequence
B2: the stoichiometry N in experiment [2] was 1.
